B1: Hendra virus W protein, N-terminally hexahistidine tagged (from pDEST17OI/HeVW) (natural protein)
chain: MDKLDLVNDGLDIIDFIQKNQKEIQKTYGRSSIQQPSTKDRTRAWEDFLQSTSGEHEQAEGGMPKNDGGTEGRNVEDLSSVTSSDGTIGQRVSNTRAWAEDPDDIQLDPMVTDVVYHDHGGECTGHGPSSSPERGWSYHMSGTHDGNVRAVPDTKVLPNAPKTTVPEEVREIDLIGLEDKFASAGLNPAAVPFVPKNQSTPTEEPPVIPEYYYGSGRRGDLSKSPPRGNVNLDSIKIYTSDDEDENQLEYEDEFAKSSSEVVIDTTPEDNDSINQEEVVGDPSDQGLEHPFPLGKFPEKEETPDVRRKDSLMQDSCKRGGVPKRLPMLSEEFECSGSDDPIIQELEREGSHPGGSLRLREPPQSSGNSRNQPDRQLKTGDAASPGGVQRPGTPMPKSRIMPIKKGAQTRSLNMLGRKTCLGRRVVQPGMFADYPPTKKARVLLRRMSN
notes: not shown: His6, N-terminal, kept

Columns and labels:
[1] = target: Nipah virus (Malaysia strain) W protein, N-terminally hexahistidine tagged (from pDEST17OI/NiVW) (Nipah virus (Malaysia strain)) (UniProt P0C1C7); experiment: SEC
[2] = target: Nipah virus (Malaysia strain) W protein, N-terminally hexahistidine tagged (from pDEST17OI/NiVW) (Nipah virus (Malaysia strain)) (UniProt P0C1C7); experiment: MALDI-TOF MS of the intact protein
[3] = target: the molecule itself; experiment: MALDI-TOF MS of the intact protein

| Molecule | stoichiometry N [1] | stoichiometry N [2] | stoichiometry N [3] |
| --- | --- | --- | --- |
| Nipah virus (Malaysia strain) W protein, N-terminally hexahistidine tagged (from pDEST17OI/NiVW) (from UniProt P0C1C7 1-450) (natural protein) | 2 | 2 | – |
| B1 | – | – | 2 |

— paper PMC8780864, “Experimental Evidence of Intrinsic Disorder and Amyloid Formation by the Henipavirus W Proteins” (International Journal of Molecular Sciences, 2022)
